{
  "source": "patent US20130281317A1",
  "about": "(ALLBERT EINSTEIN COLLEGE OF MEDICINE OF YESHIVA UNIVERSITY, published 2013)",
  "binders": {"B1": {"name": "2G12 (Fab)2 fragment displayed bivalently on M13 phage from p2G12-Fab2zip (WT) (Fab, V domains shown, not shown: a dimerising Fc or GST; large carriers)", "VH": "EVQLVESGGGLVKAGGSLILSCGVSNFRISAHTMNWVRRVPGGGLEWVASISTSSTYRDYADAVKGRFTVSRDDLEDFVYLQMHKMRVEDTAIYYCARKGSDRLSDNDPFDAWGPGTVVTVSP", "VL": "VVMTQSPSTLSASVGDTITITCRASQSIETWLAWYQQKPGKAPKLLIYKASTLKTGVPSRFSGSGSGTEFTLTISGLQFDDFATYHCQHYAGYSATFGQGTRVEIKR", "notes": "also called 2G12-Fab-biv phage; WT 2G12 clone"}},
  "biological_target": "bovine serum albumin (BSA) (bovine, UniProt P02769 25-607)",
  "sequence (P02769 25-607 limits assumed)": "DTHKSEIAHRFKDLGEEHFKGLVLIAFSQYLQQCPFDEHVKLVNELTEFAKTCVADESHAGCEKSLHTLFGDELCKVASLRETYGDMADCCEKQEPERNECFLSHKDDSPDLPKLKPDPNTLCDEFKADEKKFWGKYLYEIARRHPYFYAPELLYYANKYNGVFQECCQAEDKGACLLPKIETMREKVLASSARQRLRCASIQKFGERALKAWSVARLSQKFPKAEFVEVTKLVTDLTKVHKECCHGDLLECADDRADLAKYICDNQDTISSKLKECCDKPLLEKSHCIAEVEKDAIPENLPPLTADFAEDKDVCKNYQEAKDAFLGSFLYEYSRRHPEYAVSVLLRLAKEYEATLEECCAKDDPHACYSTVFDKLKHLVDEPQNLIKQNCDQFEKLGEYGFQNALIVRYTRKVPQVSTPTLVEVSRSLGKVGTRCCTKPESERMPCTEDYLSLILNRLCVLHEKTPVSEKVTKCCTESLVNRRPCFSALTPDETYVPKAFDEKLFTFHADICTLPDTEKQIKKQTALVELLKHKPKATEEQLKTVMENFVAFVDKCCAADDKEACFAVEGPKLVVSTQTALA",
  "assay": "phage ELISA, coated wells",
  "data": [
    {"binder": "B1", "values": [
      {"measurement": "binding result", "result": "no binding"}
    ]}
  ]
}
